{"source": "the supplement of paper PMC5998384", "key": {"HeLa Kyoto [1]": {"test_system": "HeLa Kyoto", "test": "melting temperature (median over replicates), in situ; higher = more thermally stable"}, "HeLa Kyoto [2]": {"test_system": "HeLa Kyoto", "test": "solubility in G1/S (NP-40 vs SDS abundance) (log2 ratio); higher = more soluble", "details": "cell cycle stage: G1/S"}, "HeLa Kyoto [3]": {"test_system": "HeLa Kyoto", "test": "thermal stability score vs G1/S (z-score of summed log2 fold changes over temperatures); higher = more thermally stable than in G1/S"}, "HeLa Kyoto [4]": {"test_system": "HeLa Kyoto", "test": "solubility change mitosis vs G1/S (difference of NP-40 vs SDS log2 ratios) (log2 ratio difference); higher = more soluble in mitosis"}, "[5]": {"details": "cell cycle stage: early G1 (4.5 h after nocodazole release)"}}}
{"sequence": "MAENGDNEKMAALEAKICHQIEYYFGDFNLPRDKFLKEQIKLDEGWVPLEIMIKFNRLNRLTTDFNVIVEALSKSKAELMEISEDKTKIRRSPSKPLPEVTDEYKNDVKNRSVYIKGFPTDATLDDIKEWLEDKGQVLNIQMRRTLHKAFKGSIFVVFDSIESAKKFVETPGQKYKETDLLILFKDDYFAKKNEERKQNKVEAKLRAKQEQEAKQKLEEDAEMKSLEEKIGCLLKFSGDLDDQTCREDLHILFSNHGEIKWIDFVRGAKEGIILFKEKAKEALGKAKDANNGNLQLRNKEVTWEVLEGEVEKEALKKIIEDQQESLNKWKSKGRRFKGKGKGNKAAQPGSGKGKVQFQGKKTKFASDDEHDEHDENGATGPVKRAREETDKEEPASKQQKTENGAGDQ [SSB]", "values": [{"measurement": "melting temperature", "setting": "HeLa Kyoto [1]; cell cycle stage: G1/S", "value": 49.3, "unit": "°C"}, {"measurement": "melting temperature", "setting": "HeLa Kyoto [1]; cell cycle stage: mitosis", "value": 50.3, "unit": "°C"}, {"measurement": "solubility in G1/S (log2)", "setting": "HeLa Kyoto [2]", "value": 0.66}, {"measurement": "thermal stability score", "setting": "HeLa Kyoto [3]; [5]", "value": 2.85}, {"measurement": "thermal stability score", "setting": "HeLa Kyoto [3]; cell cycle stage: mitosis", "value": 0.442}, {"measurement": "solubility change mitosis (log2)", "setting": "HeLa Kyoto [4]", "value": -0.0733}]}
{"sequence": "MAENKGGGEAESGGGGSGSAPVTAGAAGPAAQEAEPPLTAVLVEEEEEEGGRAGAEGGAAGPDDGGVAAASSGSAQAASSPAASVGTGVAGGAVSTPAPAPASAPAPGPSAGPPPGPPASLLDTCAVCQQSLQSRREAEPKLLPCLHSFCLRCLPEPERQLSVPIPGGSNGDIQQVGVIRCPVCRQECRQIDLVDNYFVKDTSEAPSSSDEKSEQVCTSCEDNASAVGFCVECGEWLCKTCIEAHQRVKFTKDHLIRKKEDVSESVGASGQRPVFCPVHKQEQLKLFCETCDRLTCRDCQLLEHKEHRYQFLEEAFQNQKGAIENLLAKLLEKKNYVHFAATQVQNRIKEVNETNKRVEQEIKVAIFTLINEINKKGKSLLQQLENVTKERQMKLLQQQNDITGLSRQVKHVMNFTNWAIASGSSTALLYSKRLITFQLRHILKARCDPVPAANGAIRFHCDPTFWAKNVVNLGNLVIESKPAPGYTPNVVVGQVPPGTNHISKTPGQINLAQLRLQHMQQQVYAQKHQQLQQMRMQQPPAPVPTTTTTTQQHPRQAAPQMLQQQPPRLISVQTMQRGNMNCGAFQAHQMRLAQNAARIPGIPRHSGPQYSMMQPHLQRQHSNPGHAGPFPVVSVHNTTINPTSPTTATMANANRGPTSPSVTAIELIPSVTNPENLPSLPDIPPIQLEDAGSSSLDNLLSRYISGSHLPPQPTSTMNPSPGPSALSPGSSGLSNSHTPVRPPSTSSTGSRGSCGSSGRTAEKTSLSFKSDQVKVKQEPGTEDEICSFSGGVKQEKTEDGRRSACMLSSPESSLTPPLSTNLHLESELDALASLENHVKIEPADMNESCKQSGLSSLVNGKSPIRSLMHRSARIGGDGNNKDDDPNEDWCAVCQNGGDLLCCEKCPKVFHLTCHVPTLLSFPSGDWICTFCRDIGKPEVEYDCDNLQHSKKGKTAQGLSPVDQRKCERLLLYLYCHELSIEFQEPVPASIPNYYKIIKKPMDLSTVKKKLQKKHSQHYQIPDDFVADVRLIFKNCERFNEMMKVVQVYADTQEINLKADSEVAQAGKAVALYFEDKLTEIYSDRTFAPLPEFEQEEDDGEVTEDSDEDFIQPRRKRLKSDERPVHIK [TRIM33]", "values": [{"measurement": "melting temperature", "setting": "HeLa Kyoto [1]; cell cycle stage: G1/S", "value": 48.1, "unit": "°C"}, {"measurement": "melting temperature", "setting": "HeLa Kyoto [1]; cell cycle stage: mitosis", "value": 49.7, "unit": "°C"}, {"measurement": "solubility in G1/S (log2)", "setting": "HeLa Kyoto [2]", "value": 0.105}, {"measurement": "thermal stability score", "setting": "HeLa Kyoto [3]; [5]", "value": 2.02}, {"measurement": "thermal stability score", "setting": "HeLa Kyoto [3]; cell cycle stage: mitosis", "value": 4.15}, {"measurement": "solubility change mitosis (log2)", "setting": "HeLa Kyoto [4]", "value": -0.201}]}
{"sequence": "MAENPSLENHRIKSFKNKGRDVETMRRHRNEVTVELRKNKRDEHLLKKRNVPQEESLEDSDVDADFKAQNVTLEAILQNATSDNPVVQLSAVQAARKLLSSDRNPPIDDLIKSGILPILVKCLERDDNPSLQFEAAWALTNIASGTSAQTQAVVQSNAVPLFLRLLRSPHQNVCEQAVWALGNIIGDGPQCRDYVISLGVVKPLLSFISPSIPITFLRNVTWVIVNLCRNKDPPPPMETVQEILPALCVLIYHTDINILVDTVWALSYLTDGGNEQIQMVIDSGVVPFLVPLLSHQEVKVQTAALRAVGNIVTGTDEQTQVVLNCDVLSHFPNLLSHPKEKINKEAVWFLSNITAGNQQQVQAVIDAGLIPMIIHQLAKGDFGTQKEAAWAISNLTISGRKDQVEYLVQQNVIPPFCNLLSVKDSQVVQVVLDGLKNILIMAGDEASTIAEIIEECGGLEKIEVLQQHENEDIYKLAFEIIDQYFSGDDIDEDPCLIPEATQGGTYNFDPTANLQTKEFNF [KPNA3]", "values": [{"measurement": "melting temperature", "setting": "HeLa Kyoto [1]; cell cycle stage: G1/S", "value": 49, "unit": "°C"}, {"measurement": "melting temperature", "setting": "HeLa Kyoto [1]; cell cycle stage: mitosis", "value": 50.5, "unit": "°C"}, {"measurement": "solubility in G1/S (log2)", "setting": "HeLa Kyoto [2]", "value": 0.128}, {"measurement": "thermal stability score", "setting": "HeLa Kyoto [3]; [5]", "value": 1.67}, {"measurement": "thermal stability score", "setting": "HeLa Kyoto [3]; cell cycle stage: mitosis", "value": 4.62}, {"measurement": "solubility change mitosis (log2)", "setting": "HeLa Kyoto [4]", "value": -0.0814}]}
{"sequence": "MAEPLQPDPGAAEDAAAQAVETPGWKAPEDAGPQPGSYEIRHYGPAKWVSTSVESMDWDSAIQTGFTKLNSYIQGKNEKEMKIKMTAPVTSYVEPGSGPFSESTITISLYIPSEQQFDPPRPLESDVFIEDRAEMTVFVRSFDGFSSAQKNQEQLLTLASILREDGKVFDEKVYYTAGYNSPVKLLNRNNEVWLIQKNEPTKENE [HEBP2]", "values": [{"measurement": "melting temperature", "setting": "HeLa Kyoto [1]; cell cycle stage: G1/S", "value": 53.1, "unit": "°C"}, {"measurement": "melting temperature", "setting": "HeLa Kyoto [1]; cell cycle stage: mitosis", "value": 53.6, "unit": "°C"}, {"measurement": "solubility in G1/S (log2)", "setting": "HeLa Kyoto [2]", "value": 0.297}, {"measurement": "thermal stability score", "setting": "HeLa Kyoto [3]; [5]", "value": 0.153}, {"measurement": "thermal stability score", "setting": "HeLa Kyoto [3]; cell cycle stage: mitosis", "value": -0.49}, {"measurement": "solubility change mitosis (log2)", "setting": "HeLa Kyoto [4]", "value": -0.0442}]}
{"sequence": "MAEPQPPSGGLTDEAALSCCSDADPSTKDFLLQQTMLRVKDPKKSLDFYTRVLGMTLIQKCDFPIMKFSLYFLAYEDKNDIPKEKDEKIAWALSRKATLELTHNWGTEDDETQSYHNGNSDPRGFGHIGIAVPDVYSACKRFEELGVKFVKKPDDGKMKGLAFIQDPDGYWIEILNPNKMATLM [GLO1]", "values": [{"measurement": "melting temperature", "setting": "HeLa Kyoto [1]; cell cycle stage: G1/S", "value": 55.8, "unit": "°C"}, {"measurement": "melting temperature", "setting": "HeLa Kyoto [1]; cell cycle stage: mitosis", "value": 54.5, "unit": "°C"}, {"measurement": "solubility in G1/S (log2)", "setting": "HeLa Kyoto [2]", "value": 0.117}, {"measurement": "thermal stability score", "setting": "HeLa Kyoto [3]; [5]", "value": -0.959}, {"measurement": "thermal stability score", "setting": "HeLa Kyoto [3]; cell cycle stage: mitosis", "value": -4.08}, {"measurement": "solubility change mitosis (log2)", "setting": "HeLa Kyoto [4]", "value": 0.168}]}
